According to patent US20230295310A1 (ABCELLERA BIOLOGICS, published 2023):

B1: mAb 294 (antibody, V domains shown)
VH: EVQLLESGGGLVQPGGSLRLSCAASGFTFSSSVMSWVRQGPGKGLEWVSAIRGSGVYTYYADSVKGRFTISRDNSKNTLYLQMNSLRAEDTAVYYCAKKYSYYYYYMDVWGKGTTVTVSS
VL: PYELTQPLSVSVALGQTARITCGGNNIGSKDVHWYQQKPGQAPVLVIYRDSNRPSGIPERFSGSNSGNTATLTISRAQAGDEADYYCQVWDSSTAVFGGGTQLTAL
notes: VH and VL only
B2: mAb 69 (antibody, V domains shown)
VH: QMLLVESGGGVVQPGRSLTLSCAASGFTFRSYGMHWVRQAPGRGLEWVAIIWYDGSTEYYADSVKGRFTISRANSKNMLYLQMNSLRAEDTAVYYCAAFDYTNSFDIWGQGTMVTVSS
VL: DIVVTQTPLSSPVTLGQPASISCRSSQRFVHSDGNTYLSWLQQRPGQPPRLLIYKISNRISGVPDRFSGSGAGTDFKLKISRVEAEDVGIYYCMQATQFPYTFGQGTKLEIK
B3: mAb 70 (antibody, V domains shown)
VH: QGQLVESGGGVVQPGRSLRLSCEASGFTFRSYGMHWVRQPPGKGLEWVAIIWYDGGKKYYGDSVKGRFTISRDNPKNTLYLQMNSLRPEDTAVYYCMAYDYSNGFDIWGQGTMVTVSS
VL: DIVMTQTPLSSPVTLGQPASISCRSSQSFVHSDGSTYLSWLQQRPGQPPRLLIYKISNRFSGVPDRFSGRGAGTDFTLKISRVEAEDVGIYYCMQNTQFPYTFGQGTKLEIK
B4: mAb 78 (antibody, V domains shown)
VH: EVQLVESGGGLVQPGGSLRLSCAASGFTFSSYWMSWVRQAPGKGLEWVANIKQDGSEKYYVDSVKGRFTISRDNAKNSLYLQMNSLRAEDTAVYYCARDNSPSFYWYFDLWGRGTLVTVSS
VL: DIQMTQSPSTLSASVGDRVTITCRASQSLSRWLAWYQQKPGKAPKLLIYKASSLESGVPSRFSGSGSGTEFTLTISSLQPDDFATYYCQQYYTYSRTFGQGTKVEIK
B5: mAb 158 (antibody, V domains shown)
VH: EVQLVESGGGLVQPGRSLRLSCAASGFTFADYTMHWVRQVPGKGLEWVSGISWNSGSVDYADSVKGRFTISRDNAKKTLYLQMNSLRAEDTALYYCAKDSSGYGHYYFYYLDVWGKGTTVTVSS
VL: EIVMTQSPATLSVSPGERATLSCRATQSVSSNLAWYQQKPGQAPRLLIYSTSTRATGIPARFSGSRSGTEFTLTISSLQSEDSAVYYCQQYNNWPHFGQGTRLEIK
B6: mAb 121 (antibody, V domains shown)
VH: EVQLVESGGGLVQPGRSLRLSCATSGFTFADYTMHWVRQAPGKGLEWVSGISWNSGSIDYADSVKGRFTISRDNAKKSLYLQMNSLRAEDTALYFCAKDSSGYGHYYFYYLDVWGKGTTVTVSS
VL: EIVMTQSPGTLSVSPGKRATLSCRASQSVSSNLAWYQQKPGQGPRLLIYSTSTRATGIPARFSGSGSGTEFTLTISSLQSEDSAVYYCQHYNNWPHFGQGTRLEIK
B7: mAb 153 (antibody, V domains shown)
VH: QVQLVESGGGVVQPGRSLRLSCAASGFTFSTYGMHWVRQAPGKGLEWVAVIWYDGSHKYYSDSVKGRFTISRDNSKNTLYLQMNSLRVEDTAIYYCARTGITGTTAYFYFDSWGQGTLVTVSS
VL: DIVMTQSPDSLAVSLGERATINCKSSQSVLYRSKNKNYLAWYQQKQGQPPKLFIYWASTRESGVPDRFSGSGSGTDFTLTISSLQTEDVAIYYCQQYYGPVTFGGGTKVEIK
B8: mAb 171 (antibody, V domains shown)
VH: EVQLVESGGGLVQPGRSLRLSCAASGFTFADYTMHWVRQAPGQGLEWVSGISWNSGSIDYADSVKGRFIISRDNAKKTLYLQMNSLRAEDTALYYCAKDSSGYGHYYFYYLDVWGKGTTVTVSS
VL: EIVMTQSPATLSVSPGERATLSCRASQSVSSNLAWYQQKPGQAPRLLIYSTSTRATGIPARFSGSRSGTEFTLTISSLQSEDSAVYYCQQYNNWPHFGQGTRLEIK
notes: VH/VL only
B9: mAb 176 (antibody, V domains shown)
VH: EVELVESGGGLVQPGRSLRLSCAASGFKFDDYTMHWVRLPPGKGLEWVSGISWNSGTIDYGDSVKGRFTISRDNAKNSLYLQMNSLRVEDTALYYCAKDTSGYGHYFYYYMDVWGKGTTVTVSS
VL: DIQMTQSPSSLSASIGDRVSITCRTSQIINNYLNWYQQKPGKAPKVLIYSASSLQSGVPSRFSGSGSGTDFTLTINSLQPEDFATYYCQQSYNFPITFGQGTRLELK
notes: VH/VL only
B10: mAb 180 (antibody, V domains shown)
VH: EVNLVESGGGLVQPGRSLRLSCAASGFTFDDYTMHWVRQVPGKGLEWVSNISWNSGSLGYADSVKGRFTISRDNAKDSLYLQMNSLRVEDTALYYCAKDSSGYGHYNSYYMDVWGKGTTVTVSS
VL: DIQMTQSPSSLSASVGDRVTITCRASQSIRNYLNWYQQKPGKAPKVLIYSASSLQSGVPSRFSGSGSGTDFTLTISSLQPEDFASFYCQQTYSTPITFGQGTRLEIK
notes: VH/VL only
B11: mAb 310 (antibody, V domains shown)
VH: QVQLVESGGGVVQPGRSLRLSCAASGFTFRSYGMHWVRQAPGKGLEWVTIIWYDGSKKYYADSVRGRFTISRDNSKNMLYLQMNSLRAEDTAVYYCASQEFNWNDGGFYYMDVWGKGTTVTVSS
VL: DIQLTQSPSFLSASVGDRVTITCRASQDISSYLHWCQQKPGKAPKLLIYGASTLQSGVPSRFSGSGSGKEFTLTISSLQPEDFATYYCQQLDNYPPTFGGGTKVEIK
notes: VH and VL only
B12: mAb 311 (antibody, V domains shown)
VH: EVQLLESGGGLVQPGGSRRLSCAASGFTFSSYAMSWVRQAPGKGLEWVSVINTRGDITSYADSVKGRFTISRDNSKNTLYLQMNSLRAEDTAVYYCAKKYSYYYYYMDVWGKGTTVTVSS
VL: SYELTQPLSVSVALGQTARITCGGNNIGSKNVHWHQQKPGQAPVLVIYRESNRPSGIPERFSGSNSGNTATLTSSRAQAGDEADYYCQVWDSSTAVFGGGTQLTAL
notes: VH and VL only
B13: mAb 312 (antibody, V domains shown)
VH: EGQLLESGGGLVQPGGSLRLSCAASGFTFSRYAMSWIRQAPGKGLEWVSVINGSGGDKNYADSVKGRFTISRDNSKNSLYLLMNGLRVEDTAIYFCAKKFSYYYYYMDVWGKGTSVTVSS
VL: SYELTQPLSVSVALGQTARITCGGNNIGSKNVHWHQQKPGQAPVLVIYRESNRPSGIPGRFSGSNSGNTATLTSSRAQAGDEADYYCQVWDSSTAVFGGGTQLTAL
notes: VH and VL only
B14: mAb 319 (antibody, V domains shown)
VH: EVQLLESGGGLLQPGGSRRLSCAATEFTFRSYAMSWVRQSPGKGLEWVSVISGRGDNTYYADSVKGRFTISRDNSKNTLYLQMNSLRAEDTAVYYCAKMYSYYYYYMDVWGKGTTVTVSS
VL: SYELTQPLSVSVALGQTARITCGGNNIGSKNVHWHQQKPGQAPVLVIYRESNRPSGIPERFSGSNSGNTATLTSSRAQAGDEADYYCQVWDSSTAVFGGGTQLTAL
notes: VH and VL only
B15: mAb 323 (antibody, V domains shown)
VH: QVQVVQSGAEVKNPGASVKVSCKASGYTFTGYYMHWVRQAPGQGLEWMGWIYPNSGRTNYAQKFQGRVTMTRDTSISTAYMELSRLRSDDTAVYYCARLEQLVFDYWGQGTLVTVSS
VL: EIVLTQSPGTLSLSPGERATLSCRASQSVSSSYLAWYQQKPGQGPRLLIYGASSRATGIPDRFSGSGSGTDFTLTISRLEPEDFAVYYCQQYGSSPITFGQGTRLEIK
notes: VH and VL only
B16: mAb 324 (antibody, V domains shown)
VH: QVQVVQSGAEVKKPGASVKVSCKTSGYTFTDYYIHWVRQAPGQGLEWMGWIYPKSGRTDNAQNFKGRVAMTRDTSINTAYLELNRLRSDDTAIYYCARLEELVFDYWGQGTLVTVSS
VL: DIQMTQSPSSVSASVGDRVTITCRASQVISRWLAWYQLKPGKAPKLLIYEASSLQSWVPSRFSGSGSGTDFTLTISSLQPEDFATYYCQQANSFPWTFGQGTKVEIK
B17: mAb 325 (antibody, V domains shown)
VH: QVQVVQSGAEVKKPGASVKVSCKTSGYTFTDQYIHWVRQAPGQGLEWMGWIYPKSGRTDNAQKFKGRVAMTRDTSINTAYMELSSLRSDDTATYYCARLEELVFDYWGQGTLVTVSS
VL: not shown

Legend:
human CD3 = biological target: T1, human CD3 (human, UniProt P07766 23-207; P04234 22-171; P09693 23-182); test: flow cytometry, Jurkat cells
T1 construct: whole, on cells; also called CD3 on Jurkat cells; CD3 on human primary T cells
T1 sequence (P07766 23-207, chain 1 of 3): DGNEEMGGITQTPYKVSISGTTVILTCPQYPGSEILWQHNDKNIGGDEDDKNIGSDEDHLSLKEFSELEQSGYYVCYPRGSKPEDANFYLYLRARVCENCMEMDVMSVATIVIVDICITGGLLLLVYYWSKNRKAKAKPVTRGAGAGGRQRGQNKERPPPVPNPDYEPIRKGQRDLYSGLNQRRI
T1 sequence (P04234 22-171, chain 2 of 3): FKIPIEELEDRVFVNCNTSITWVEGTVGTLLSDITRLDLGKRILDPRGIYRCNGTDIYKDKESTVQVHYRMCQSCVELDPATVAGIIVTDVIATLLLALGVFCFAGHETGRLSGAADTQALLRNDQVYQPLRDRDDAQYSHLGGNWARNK
T1 sequence (P09693 23-182, chain 3 of 3): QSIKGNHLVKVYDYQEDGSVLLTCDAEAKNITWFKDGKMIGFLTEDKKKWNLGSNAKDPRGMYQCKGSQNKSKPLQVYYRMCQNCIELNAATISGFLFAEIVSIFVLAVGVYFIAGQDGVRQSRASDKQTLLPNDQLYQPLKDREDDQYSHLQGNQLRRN
Method in brief: (§1)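 Values are fold over isotype: median fluorescence intensity of each antibody relative to isotype control after a 30-minute, 4° C incubation at 25 nM with CD3-bearing cells in PBS containing 2% FBS.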

cynomolgus monkey CD3 = biological target: T2, cynomolgus monkey CD3 (cynomolgus monkey, UniProt Q95LI5 22-198; Q95LI8 22-171; Q95LI7 23-181); test: flow cytometry, cyno primary T cells
T2 construct: whole, on cells; CD3 on purified cynomolgus monkey CD3 pan T cells; also called cyno CD3; CD3 on cyno primary T cells
T2 sequence (Q95LI5 22-198, chain 1 of 3): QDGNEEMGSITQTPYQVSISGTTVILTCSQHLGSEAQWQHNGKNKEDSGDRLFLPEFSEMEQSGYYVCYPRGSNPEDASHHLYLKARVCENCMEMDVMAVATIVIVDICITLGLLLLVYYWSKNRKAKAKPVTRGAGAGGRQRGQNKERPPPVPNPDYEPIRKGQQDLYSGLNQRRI
T2 sequence (Q95LI8 22-171, chain 2 of 3): as the sequence (P04234 22-171, chain 2 of 3) above, with I5V, N15K, I20V, S32T, D33N, I34N, T64A, S74N, V83L, H141R counted along it
T2 sequence (Q95LI7 23-181, chain 3 of 3): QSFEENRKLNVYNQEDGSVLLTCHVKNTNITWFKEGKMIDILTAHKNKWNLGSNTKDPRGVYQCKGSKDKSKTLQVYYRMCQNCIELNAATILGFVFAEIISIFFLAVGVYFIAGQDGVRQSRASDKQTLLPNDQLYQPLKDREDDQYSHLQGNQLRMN
Method in brief: as §1

[1] = biological target: T3, human CD3 expressed on cells (human, UniProt P07766 23-207; P04234 22-171; P09693 23-182); test: flow cytometry, 25 nM
T3 construct: whole, on cells; CD3 complex on Jurkat cells and on human primary T cells
T3 sequence (P07766 23-207, chain 1 of 3): as the sequence (P07766 23-207, chain 1 of 3) above
T3 sequence (P04234 22-171, chain 2 of 3): as the sequence (P04234 22-171, chain 2 of 3) above
T3 sequence (P09693 23-182, chain 3 of 3): as the sequence (P09693 23-182, chain 3 of 3) above
Method in brief: as §1

[2] = biological target: T4, cynomolgus monkey CD3 expressed on primary T cells (cynomolgus monkey, UniProt Q95LI5 22-198; Q95LI8 22-171; Q95LI7 23-181); test: flow cytometry, 25 nM
T4 construct: whole, on cells; CD3 complex on purified cynomolgus monkey T cells; also called cyno CD3
T4 sequence (Q95LI5 22-198, chain 1 of 3): as the sequence (Q95LI5 22-198, chain 1 of 3) above
T4 sequence (Q95LI8 22-171, chain 2 of 3): as the sequence (P04234 22-171, chain 2 of 3) above, with I5V, N15K, I20V, S32T, D33N, I34N, T64A, S74N, V83L, H141R counted along it
T4 sequence (Q95LI7 23-181, chain 3 of 3): as the sequence (Q95LI7 23-181, chain 3 of 3) above
Method in brief: as §1

[3] = biological target: T5, human CD3 expressed on cells (Jurkat cells; human primary T cells) (human, UniProt P07766 23-207; P04234 22-171; P09693 23-182); test: flow cytometry, 25 nM, Jurkat cells
T5 construct: whole, on cells
T5 sequence (P07766 23-207, chain 1 of 3): as the sequence (P07766 23-207, chain 1 of 3) above
T5 sequence (P04234 22-171, chain 2 of 3): as the sequence (P04234 22-171, chain 2 of 3) above
T5 sequence (P09693 23-182, chain 3 of 3): as the sequence (P09693 23-182, chain 3 of 3) above
Method in brief: as §1

[4] = biological target: T6, cynomolgus monkey CD3 expressed on cyno primary T cells (cynomolgus monkey, UniProt Q95LI5 22-198; Q95LI8 22-171; Q95LI7 23-181); test: flow cytometry, 25 nM, cyno primary T cells
T6 construct: whole, on cells; CD3 complex on purified cynomolgus monkey CD3 pan T cells; also called cyno CD3
T6 sequence (Q95LI5 22-198, chain 1 of 3): as the sequence (Q95LI5 22-198, chain 1 of 3) above
T6 sequence (Q95LI8 22-171, chain 2 of 3): as the sequence (P04234 22-171, chain 2 of 3) above, with I5V, N15K, I20V, S32T, D33N, I34N, T64A, S74N, V83L, H141R counted along it
T6 sequence (Q95LI7 23-181, chain 3 of 3): as the sequence (Q95LI7 23-181, chain 3 of 3) above
Method in brief: as §1

[5] = biological target: T5, human CD3 expressed on cells (Jurkat …); test: flow cytometry, 25 nM, human primary T cells
Method in brief: as §1

Binder	binding result (human CD3)	binding result (cynomolgus monkey CD3)	Human primary T Cell Binding (FOI) [1] [FOI]	Jurkat Cell Binding (FOI) [1] [FOI]	Cyno primary T Cell Binding (FOI) [2] [FOI]	also measured
B1	no binding (tested: FOI ≥10 = positive; 25 nM)	no binding (tested: FOI ≥10 = positive; 25 nM)	–	–	–	–
B2	–	–	123	145	245	–
B3	–	–	131	140	238	–
B4	–	–	116	104	41.6	–
B5	–	–	164	117	10.9	–
B6	–	–	101	101	12.2	–
B7	–	–	262	98.5	26.1	–
B8	–	–	–	–	–	Binding (FOI) [3]: 108 FOI; Binding (FOI) [4]: 20.1 FOI; Binding (FOI) [5]: 165 FOI
B9	–	–	–	–	–	Binding (FOI) [3]: 114 FOI; Binding (FOI) [4]: 34 FOI; Binding (FOI) [5]: 147 FOI
B10	–	–	–	–	–	Binding (FOI) [4]: 90.2 FOI
B11	no binding (tested: FOI ≥10 = positive; 25 nM)	no binding (tested: FOI ≥10 = positive; 25 nM)	–	–	–	–
B12	no binding (tested: FOI ≥10 = positive; 25 nM)	no binding (tested: FOI ≥10 = positive; 25 nM)	–	–	–	–
B13	no binding (tested: FOI ≥10 = positive; 25 nM)	no binding (tested: FOI ≥10 = positive; 25 nM)	–	–	–	–
B14	no binding (tested: FOI ≥10 = positive; 25 nM)	no binding (tested: FOI ≥10 = positive; 25 nM)	–	–	–	–
B15	no binding (tested: FOI ≥10 = positive; 25 nM)	no binding (tested: FOI ≥10 = positive; 25 nM)	–	–	–	–
B16	no binding (tested: FOI ≥10 = positive; 25 nM)	no binding (tested: FOI ≥10 = positive; 25 nM)	–	–	–	–
B17	no binding (tested: FOI ≥10 = positive; 25 nM)	no binding (tested: FOI ≥10 = positive; 25 nM)	–	–	–	–
